The source of these data is patent US20230357339A1, “Development of Cell-Permeable Truncated SOCS3 SH2 Domain (CP-SD) Recombinant Protein for Anti-Obesity Agent” (Cellivery Therapeutics, Inc., priority 2020, published 2023).

As usually defined, the Kd is the concentration at which binding is half-saturated. Low readings indicate tighter binding, high ones weaker binding.

Sequences and labels used below:
B1: aMTD524-P2-1-6: SEQ ID No. 268; his tag-conjugated aMTD524-P2-1 (protein)
chain: GSSHHHHHHSSGLVPRGSHMAVALIVVPALAPEAAAKLIRDSSDQRHFFTLSVKTQSGTKNLRIQ
modifications: His tag; Amino acid Sequence of aMTD524-P2-1-6
B2: aMTD524-37: SEQ ID No. 283; truncate from the SH2 domain containing aMTD and SH2 (L69-Q96) (protein)
chain: AVALIVVPALAPEAAAKLIRDSSDQRHFFTLSVKTQSGTKNLRIQCEGGSFSLQSDPRSTQPVPRFDCVLKLVHHYM
modifications: Amino acid Sequence of aMTD524-37
B3: aMTD830-P2-1-24B: SEQ ID No. 261; aMTD830-replaced P2-1-24B (protein)
chain: IALVAAPVALVPEAAAKLIRDSSDQRHFFTLSVKTQSGTKNLRIQGGGGSGGGGSGGGGSGGGGSHHYMGSGSGSGSAYYIYSGGEKIPLVLSRPLSSNEAAAKEAAAKEAAAKMAEQSDKDVKYYTLEEIQKHKDSKSTWLILHHKVYDLTKFLEEHPGGEEVLGEQAGGDATENFEDVGHSTDARELSKTYIIGELHPDDRSKIAKPSETL
modifications: Amino acid Sequence of aMTD830-P2-1-24B
notes: aMTD830-replaced P2-1-24B
B4: aMTD524-P2-1-23: SEQ ID No. 280; contains SH2 (L69-Q96), SH2 (H125-M128) and SH2 (A164-N185) (protein)
chain: AVALIVVPALAPEAAAKLIRDSSDQRHFFTLSVKTQSGTKNLRIQEAAAKEAAAKEAAAKEAAAKHHYMGSGSGSGSAYYIYSGGEKIPLVLSRPLSSN
modifications: Amino acid Sequence of aMTD-P2-1-23
B5: aMTD524-P2-1-24: SEQ ID No. 281; same regions as aMTD524-P2-1-23 with different linkers (protein)
chain: AVALIVVPALAPEAAAKLIRDSSDQRHFFTLSVKTQSGTKNLRIQGGGGSGGGGSGGGGSGGGGSHHYMGSGSGSGSAYYIYSGGEKIPLVLSRPLSSN
modifications: Amino acid Sequence of aMTD-P2-1-24
notes: same regions as aMTD524-P2-1-23 with different linkers
B6: aMTD524-P2-1-21: SEQ ID No. 279; contains SH2 (T52-A62), (L69-Q96), (V120-M128) and (A164-N185) (protein)
chain: TGGEANLLLSAGSGSGSGSGSGSGSGSAVALIVVPALAPEAAAKLIRDSSDQRHFFTLSVKTQSGTKNLRIQGGGGSGGGGSGGGGSGGGGSVLKLVHHYMGSGSGSGSAYYIYSGGEKIPLVLSRPLSS
modifications: Amino acid Sequence of aMTD-P2-1-21
B7: aMTD524-36: SEQ ID No. 282; truncate from the SH2 domain containing aMTD and SH2 (L69-Q96) (protein)
chain: AVALIVVPALAPEAAAKGFYWSAVTGGEANLLLSAEPAGTFLIRDSSDQRHFFTLSVKTQSGTKNLRIQCEGGSFSLQSDPRSTQPVPRFDCVLKLVHHYMGSGSGSGSAYYIYSGGEKIPLVLSRPLSSN
modifications: Amino acid Sequence of aMTD524-36
B8: aMTD830-P2-1B: SEQ ID No. 255; aMTD830-replaced P2-1B, SH2 (L69-Q96) and SDB (protein)
chain: IALVAAPVALVPEAAAKLIRDSSDQRHFFTLSVKTQSGTKNLRIQEAAAKEAAAKEAAAKMAEQSDKDVKYYTLEEIQKHKDSKSTWLILHHKVYDLTKFLEEHPGGEEVLGEQAGGDATENFEDVGHSTDARELSKTYIIGELHPDDRSKIAKPSETL
modifications: Amino acid Sequence of aMTD830-P2-1B
notes: aMTD830-replaced P2-1B, SH2 (L69-Q96) and SDB
B9: aMTD830-P2-1-32B: SEQ ID No. 266; aMTD830-replaced P2-1-32B (protein)
chain: IALVAAPVALVPEAAAKLIRDSSDQRHFFTLSVKTQSGTKNLRIQGGGGSGGGGSGGGGSGGGGSAYYIYSGGEKIPLVLSRPLSSNEAAAKEAAAKEAAAKMAEQSDKDVKYYTLEEIQKHKDSKSTWLILHHKVYDLTKFLEEHPGGEEVLGEQAGGDATENFEDVGHSTDARELSKTYIIGELHPDDRSKIAKPSETL
modifications: Amino acid Sequence of aMTD830-P2-1-32B
notes: aMTD830-replaced P2-1-32B

In the first data set the target is T1, Phosphorylated human leptin receptor peptide (QRQPFVK[pY] ATLISNSK), phosphorylated Y985 (Homo sapiens, UniProt P48357).
T1 construct: Phosphorylated human leptin receptor peptide (QRQPFVK[pY] ATLISNSK); purchased Anygen (Gwangju, Korea); host or cells: synthetic peptide
Kind of data set: Binding affinity to leptin receptor by isothermal titration calorimetry (ITC). To be noted: leptin receptor peptide phosphorylated at Y985, storage buffer pH 4.0. The procedure: The binding affinity of cell-permeable truncated SOCS3 SH2 domain recombinant proteins to leptin receptor was analysed using isothermal titration calorimetry (ITC). Phosphorylated human leptin receptor peptide (QRQPFVK[pY] ATLISNSK) used in the experiment was acquired from Anygen (Gwangju, Korea). The binding affinity of aMTD524-P2-1-6 was measured using the following methods. Leptin receptor peptide was dissolved into DMSO and was diluted into storage buffer (50 mM sodium acetate, 50 mM NaCl, pH 4.0) to reach a final peptide concentration of 400 μM and final DMSO concentration of 0.5%. Using dialysis method, purified aMTD524-P2-1-6 was maintained at the identical batch storage buffer, and was diluted to reach the final concentration of 50 μM. Next, binding affinity was measured using ITC (Auto-ITC200).
The molecule B1 displayed a Kd of 8 µM.

The subject of the next data set is leptin resistant mHypoA2/21-SOCS3 cells. Kind of data set: Biological activity test: overcoming leptin resistance (STAT3 phosphorylation, western blot). To be noted: protein treated 1 hour, then 10 ng/mL mouse leptin 30 minutes. Type of data set: cell-based. The procedure:
To validate that cell-permeable truncated SOCS3 recombinant protein can overcome leptin resistance, the purified recombinant proteins were treated at leptin resistant cell line mHypoA2/21-SOCS3. mHypoA2/21-SOCS3 was produced by over-expressing SOCS3 at mouse hypothalamic neuron mHypoA2/21, and cultured using DMEM containing 10% FBS and 7 mg/mL geneticin. Cells were seeded at the concentration of 150000 cells/60 mm plate and on the following day the medium was replaced with 7 mg/mL geneticin containing serum free DMEM and starved the cells for the following 16 hours. Purified CP-SD recombinant proteins were diluted into 7 mg/mL geneticin containing serum free DMEM and treated for 1 hour, proteins were removed, and 10 ng/mL mouse leptin was treated for 30 minutes.
The cells were lysed in a lysis buffer (150 mM NaCl, 20 mM Tris, 1% triton-X-100, pH 7.5) containing protease inhibitor and […], incubated for 20 min at 4° C., and centrifuged at 13,000 rpm for 20 min at 4° C. Equal amounts of lysates were separated on 10% SDS-PAGE gels and transferred to a PVDF membrane. The membranes were blocked using TBST buffer 5% bovine serum albumin (BSA) and for western blot analysis incubated with the following antibodies diluted in TBST buffer 5% bovine serum albumin (BSA): anti-phospho-STAT3 (Cell Signaling Technology, USA), anti-STAT3 (Cell Signaling Technology, USA) and anti-myc (Cell Signaling Technology, USA), then HRP conjugated anti-rabbit secondary antibody (Cell Signaling Technology, USA) and anti-mouse secondary antibody (Cell Signaling Technology, USA). The protein bands were detected with ECL solution using luminescent image analyzer (ImageQuant LAS 500, GE Healthcare).
In general terms: A western blot detects proteins with antibodies after separation by electrophoresis.
In the case of B2, the “overcoming leptin resistance (STAT3 phosphorylation level)” value (“overcoming leptin resistance” for short) is recorded as “did not overcome leptin resistance”.

In the case of B3, the “overcoming leptin resistance” value is recorded as “overcame leptin resistance”.

As to B1, the “overcoming leptin resistance” value is recorded as “overcame leptin resistance”.

Take B4: the “overcoming leptin resistance” value is recorded as “did not”.

Consider B5, for which the “overcoming leptin resistance” value is reported as “overcame leptin resistance”.

Regarding B6, the “overcoming leptin resistance” value is reported as “did not”.

Consider B7, for which the “overcoming leptin resistance” value is given as “did not overcome leptin resistance”.

For the molecule B8, the “overcoming leptin resistance” value is “overcame leptin resistance”.

Turning to B9, the “overcoming leptin resistance” value is on record as “overcame leptin resistance”.

System in another data set: not listed separately
Kind of data set: Turbidity with thermal stress of 37° C. (absorbance at 350 nm). Type of data set: physicochemical. The following applies: thermal stress of 37° C. for 3 hours, storage buffer. The procedure: The recombinant proteins were diluted in their storage buffer or serum free DMEM medium and added into wells of a clear 96 well plate. The plate was incubated at 37° C. and the absorbance of each well was measured at 350 nm every 30 minutes in a microplate reader (Synergy H1, BioTek).
As to B1, the “stability (turbidity) in storage buffer” value was “stable”.

Staying with this data set, now noted: thermal stress of 37° C., serum free medium.
In the case of B3, the “stability (turbidity) in serum free medium” value was “stable”.

On to B5, for which the “stability (turbidity) in serum free medium” value is reported as “instability”.

On to B8, for which the “stability (turbidity) in serum free medium” value is given as “stable”.

For B9, the “stability (turbidity) in serum free medium” value is listed as “stable”.
